Experimental data published in patent US20160264649A1.

Assays:
Experiment in all cases: cell-based or functional assay
[1] = biological target: HIV-1 Env of isolate MGRM-D-014 (subtype D) (HIV-1)
[2] = biological target: HIV-1 Env of pseudovirus isolate MGRM-G-016 (subtype G) (HIV-1)
[3] = biological target: HIV-1 Env of isolate MGRM-F1-018 (subtype F) (HIV-1)
[4] = biological target: HIV-1 Env of isolate MGRM-D-029 (subtype D) (HIV-1)
[5] = biological target: HIV-1 Env of pseudovirus isolate MGRM-G-024 (subtype G) (HIV-1)
[6] = biological target: HIV-1 Env of isolate MGRM-F1-016 (subtype F) (HIV-1)
[7] = biological target: HIV-1 Env of isolate MGRM-F1-021 (subtype F) (HIV-1)
[8] = biological target: HIV-1 Env of isolate MGRM-D-001 (subtype D) (HIV-1)
[9] = biological target: HIV-1 Env of isolate MGRM-F1-008 (subtype F) (HIV-1)
[10] = biological target: HIV-1 Env of pseudovirus isolate MGRM-G-006 (subtype G) (HIV-1)
[11] = biological target: HIV-1 Env of isolate MGRM-F1-013 (subtype F) (HIV-1)
[12] = biological target: HIV-1 Env of pseudovirus isolate MGRM-G-027 (subtype G) (HIV-1)
[13] = biological target: HIV-1 Env of pseudovirus isolate MGRM-G-014 (subtype G) (HIV-1)
[14] = biological target: HIV-1 Env of isolate 92UG005 (subtype D) (HIV-1)
[15] = biological target: HIV-1 Env of isolate MGRM-D-018 (subtype D) (HIV-1)
[16] = biological target: HIV-1 Env of pseudovirus isolate MGRM-G-015 (subtype G) (HIV-1)
[17] = biological target: HIV-1 Env of isolate MGRM-F1-006 (subtype F) (HIV-1)
[18] = biological target: HIV-1 Env of isolate MGRM-F1-004 (subtype F) (HIV-1)
[19] = biological target: HIV-1 Env of isolate MGRM-D-005 (subtype D) (HIV-1)
[20] = biological target: HIV-1 Env of isolate MGRM-F1-012 (subtype F) (HIV-1)
[21] = biological target: HIV-1 Env of pseudovirus isolate MGRM-G-028 (subtype G) (HIV-1)
[22] = biological target: HIV-1 Env of isolate 92UG046 (subtype D) (HIV-1)
[23] = biological target: HIV-1 Env of isolate MGRM-D-024 (subtype D) (HIV-1)
[24] = biological target: HIV-1 Env of isolate MGRM-D-016 (subtype D) (HIV-1)
[25] = biological target: HIV-1 Env of isolate MGRM-D-022 (subtype D) (HIV-1)
[26] = biological target: HIV-1 Env of isolate 98CN006 (subtype CRF08_BC) (HIV-1)
[27] = biological target: HIV-1 Env of isolate 92UG114 (subtype D) (HIV-1)
[28] = biological target: HIV-1 Env of isolate MGRM-D-019 (subtype D) (HIV-1)
[29] = biological target: HIV-1 Env of pseudovirus isolate MGRM-G-013 (subtype G) (HIV-1)
[30] = biological target: HIV-1 Env of isolate MGRM-D-004 (subtype D) (HIV-1)
[31] = biological target: HIV-1 Env of pseudovirus isolate MGRM-G-004 (subtype G) (HIV-1)
[32] = biological target: HIV-1 Env of isolate MGRM-F1-014 (subtype F) (HIV-1)
[33] = biological target: envelope of aMLV pseudovirus (negative control)
[34] = biological target: HIV-1 Env of pseudovirus isolate MGRM-G-011 (subtype G) (HIV-1)
[35] = biological target: HIV-1 Env of isolate 92UG001 (subtype D) (HIV-1)
[36] = biological target: HIV-1 Env of isolate MGRM-D-008 (subtype D) (HIV-1)
[37] = biological target: HIV-1 Env of isolate MGRM-D-012 (subtype D) (HIV-1)
[38] = biological target: HIV-1 Env of isolate MGRM-F1-015 (subtype F) (HIV-1)
[39] = biological target: HIV-1 Env of pseudovirus isolate MGRM-G-019 (subtype G) (HIV-1)
[40] = biological target: HIV-1 Env of isolate MGRM-F1-010 (subtype F) (HIV-1)
[41] = biological target: HIV-1 Env of isolate MGRM-F1-023 (subtype F) (HIV-1)
[42] = biological target: HIV-1 Env of isolate MGRM-D-028 (subtype D) (HIV-1)
[43] = biological target: HIV-1 Env of isolate MGRM-D-026 (subtype D) (HIV-1)
[44] = biological target: HIV-1 Env of isolate MGRM-F1-022 (subtype F) (HIV-1)
[45] = biological target: HIV-1 Env of pseudovirus isolate MGRM-G-017 (subtype G) (HIV-1)
[46] = biological target: HIV-1 Env of isolate 98CN009 (subtype CRF07_BC) (HIV-1)
[47] = biological target: HIV-1 Env of isolate 92UG024 (subtype D) (HIV-1)
[48] = biological target: HIV-1 Env of isolate MGRM-F1-020 (subtype F) (HIV-1)
[49] = biological target: HIV-1 Env of isolate MGRM-D-003 (subtype D) (HIV-1)
[50] = biological target: HIV-1 Env of isolate MGRM-D-021 (subtype D) (HIV-1)
[51] = biological target: HIV-1 Env of isolate MGRM-D-013 (subtype D) (HIV-1)
[52] = biological target: HIV-1 Env of pseudovirus isolate MGRM-G-025 (subtype G) (HIV-1)
[53] = biological target: HIV-1 Env of pseudovirus isolate MGRM-G-009 (subtype G) (HIV-1)
[54] = biological target: HIV-1 Env of isolate MGRM-F1-017 (subtype F) (HIV-1)
[55] = biological target: HIV-1 Env of isolate MGRM-D-002 (subtype D) (HIV-1)
[56] = biological target: HIV-1 Env of pseudovirus isolate MGRM-G-001 (subtype G) (HIV-1)
[57] = biological target: HIV-1 Env of isolate MGRM-D-020 (subtype D) (HIV-1)
[58] = biological target: HIV-1 Env of isolate MGRM-D-011 (subtype D) (HIV-1)

B1: PGT-125 (antibody, V domains shown)
VH: QSQLQESGPRLVEASETLSLTCNVSGESTGACTYFWGWVRQAPGKGLEWIGSLSHCQSFWGSGWTFHNPSLKSRLTISLDTPKNQVFLKLTSLTAADTATYYCARFDGEVLVYNHWPKPAWVDLWGRGIPVTVSS
VL: QSALTQPPSASGSPGQSITISCNGTATNFVSWYQQFPDKAPKLIIFGVDKRPPGVPDRFSGSRSGTTASLTVSRLQTDDEAVYYCGSLVGNWDVIFGGGTTLTVL
[1]
  IC50 (neutralization): 0.12 µg/mL
[2]
  IC50: > 50 µg/mL
[3]
  IC50 (neutralization): > 50 µg/mL
[4]
  IC50 (neutralization): > 50 µg/mL
[5]
  IC50: > 50 µg/mL
[6]
  IC50 (neutralization): > 50 µg/mL
[7]
  IC50 (neutralization): > 50 µg/mL
[8]
  IC50 (neutralization): 2.84 µg/mL
[9]
  IC50 (neutralization): > 50 µg/mL
[10]
  IC50: > 50 µg/mL
[11]
  IC50 (neutralization): > 50 µg/mL
[12]
  IC50: 34.4 µg/mL
[13]
  IC50: 0.007 µg/mL
[14]
  IC50 (neutralization): > 50 µg/mL
[15]
  IC50 (neutralization): 0.049 µg/mL
[16]
  IC50: > 50 µg/mL
[17]
  IC50 (neutralization): 0.361 µg/mL
[18]
  IC50 (neutralization): 0.035 µg/mL
[19]
  IC50 (neutralization): > 50 µg/mL
[20]
  IC50 (neutralization): > 50 µg/mL
[21]
  IC50: 0.012 µg/mL
[22]
  IC50 (neutralization): > 50 µg/mL
[23]
  IC50 (neutralization): > 50 µg/mL
[24]
  IC50 (neutralization): > 50 µg/mL
[25]
  IC50 (neutralization): > 50 µg/mL
[26]
  IC50 (neutralization): 0.201 µg/mL
[27]
  IC50 (neutralization): 0.349 µg/mL
[28]
  IC50 (neutralization): > 50 µg/mL
[29]
  IC50: > 50 µg/mL
[30]
  IC50 (neutralization): 0.371 µg/mL
[31]
  IC50: > 50 µg/mL
[32]
  IC50 (neutralization): > 50 µg/mL
[33]
  IC50: > 50 µg/mL
[34]
  IC50: > 50 µg/mL
[35]
  IC50 (neutralization): > 50 µg/mL
[36]
  IC50 (neutralization): > 50 µg/mL
[37]
  IC50 (neutralization): > 50 µg/mL
[38]
  IC50 (neutralization): > 50 µg/mL
[39]
  IC50: > 50 µg/mL
[40]
  IC50 (neutralization): > 50 µg/mL
[41]
  IC50 (neutralization): 0.012 µg/mL
[42]
  IC50 (neutralization): > 50 µg/mL
[43]
  IC50 (neutralization): > 50 µg/mL
[44]
  IC50 (neutralization): > 50 µg/mL
[45]
  IC50: > 50 µg/mL
[46]
  IC50 (neutralization): 0.03 µg/mL
[47]
  IC50 (neutralization): > 50 µg/mL
[48]
  IC50 (neutralization): > 50 µg/mL
[49]
  IC50 (neutralization): 0.065 µg/mL
[50]
  IC50 (neutralization): 0.04 µg/mL
[51]
  IC50 (neutralization): > 50 µg/mL
[52]
  IC50: > 50 µg/mL
[53]
  IC50: > 50 µg/mL
[54]
  IC50 (neutralization): > 50 µg/mL
[55]
  IC50 (neutralization): 0.118 µg/mL
[56]
  IC50: 0.033 µg/mL
[57]
  IC50 (neutralization): 0.015 µg/mL
[58]
  IC50 (neutralization): 0.008 µg/mL

B2: PGT-123 (antibody, V domains shown)
VH: QLHLQESGPGLVKPPETLSLTCSVSGASINDAYWSWIRQSPGKRPEWVGYVHHSGDTNYNPSLKRRVTFSLDTAKNEVSLKLVDLTAADSATYFCARALHGKRIYGIVALGELFTYFYMDVWGKGTAVTVSS
VL: SSMSVSPGETAKISCGKESIGSRAVQWYQQKPGQPPSLIIYNNQDRPAGVPERFSASPDFRPGTTATLTITNVDAEDEADYYCHIYDARGGTNWVFDRGTTLTVL
[1]
  IC50 (neutralization): 0.009 µg/mL
[2]
  IC50: > 50 µg/mL
[3]
  IC50 (neutralization): 0.054 µg/mL
[4]
  IC50 (neutralization): > 50 µg/mL
[5]
  IC50: 0.032 µg/mL
[6]
  IC50 (neutralization): 4.95 µg/mL
[7]
  IC50 (neutralization): 0.307 µg/mL
[8]
  IC50 (neutralization): 0.147 µg/mL
[9]
  IC50 (neutralization): > 50 µg/mL
[10]
  IC50: > 50 µg/mL
[11]
  IC50 (neutralization): 0.08 µg/mL
[12]
  IC50: 0.182 µg/mL
[13]
  IC50: 0.005 µg/mL
[14]
  IC50 (neutralization): 9.79 µg/mL
[15]
  IC50 (neutralization): 0.007 µg/mL
[16]
  IC50: > 50 µg/mL
[17]
  IC50 (neutralization): 6.89 µg/mL
[18]
  IC50 (neutralization): 1.78 µg/mL
[19]
  IC50 (neutralization): > 50 µg/mL
[20]
  IC50 (neutralization): 22.2 µg/mL
[21]
  IC50: 0.008 µg/mL
[22]
  IC50 (neutralization): > 50 µg/mL
[23]
  IC50 (neutralization): 0.023 µg/mL
[24]
  IC50 (neutralization): > 50 µg/mL
[25]
  IC50 (neutralization): > 50 µg/mL
[26]
  IC50 (neutralization): 0.008 µg/mL
[27]
  IC50 (neutralization): 0.005 µg/mL
[28]
  IC50 (neutralization): > 50 µg/mL
[29]
  IC50: 3.97 µg/mL
[30]
  IC50 (neutralization): > 50 µg/mL
[31]
  IC50: 0.181 µg/mL
[32]
  IC50 (neutralization): 0.111 µg/mL
[33]
  IC50: > 50 µg/mL
[34]
  IC50: 14.9 µg/mL
[35]
  IC50 (neutralization): > 50 µg/mL
[36]
  IC50 (neutralization): > 50 µg/mL
[37]
  IC50 (neutralization): > 50 µg/mL
[38]
  IC50 (neutralization): > 50 µg/mL
[39]
  IC50: 0.008 µg/mL
[40]
  IC50 (neutralization): 0.016 µg/mL
[41]
  IC50 (neutralization): 0.053 µg/mL
[42]
  IC50 (neutralization): 0.132 µg/mL
[43]
  IC50 (neutralization): > 50 µg/mL
[44]
  IC50 (neutralization): 0.075 µg/mL
[45]
  IC50: 0.026 µg/mL
[46]
  IC50 (neutralization): 0.007 µg/mL
[47]
  IC50 (neutralization): > 50 µg/mL
[48]
  IC50 (neutralization): 0.051 µg/mL
[49]
  IC50 (neutralization): 3.74 µg/mL
[50]
  IC50 (neutralization): 11.1 µg/mL
[51]
  IC50 (neutralization): > 50 µg/mL
[52]
  IC50: 0.046 µg/mL
[53]
  IC50: 33.5 µg/mL
[54]
  IC50 (neutralization): > 50 µg/mL
[55]
  IC50 (neutralization): 0.012 µg/mL
[56]
  IC50: 0.009 µg/mL
[57]
  IC50 (neutralization): 0.018 µg/mL
[58]
  IC50 (neutralization): 0.012 µg/mL
